Here are results for two molecules from patent US20100143376A1 (RIBOVAX BIOTECHNOLOGIES S A, published 2010).

This test deals with T1, Bovine Serum Albumin (bovine, UniProt P02769 25-607).
T1 construct: also called BSA
Kind of test: ELISA, antigen coated on plate, phage-displayed Fab.

T1 sequence (P02769 25-607 limits assumed): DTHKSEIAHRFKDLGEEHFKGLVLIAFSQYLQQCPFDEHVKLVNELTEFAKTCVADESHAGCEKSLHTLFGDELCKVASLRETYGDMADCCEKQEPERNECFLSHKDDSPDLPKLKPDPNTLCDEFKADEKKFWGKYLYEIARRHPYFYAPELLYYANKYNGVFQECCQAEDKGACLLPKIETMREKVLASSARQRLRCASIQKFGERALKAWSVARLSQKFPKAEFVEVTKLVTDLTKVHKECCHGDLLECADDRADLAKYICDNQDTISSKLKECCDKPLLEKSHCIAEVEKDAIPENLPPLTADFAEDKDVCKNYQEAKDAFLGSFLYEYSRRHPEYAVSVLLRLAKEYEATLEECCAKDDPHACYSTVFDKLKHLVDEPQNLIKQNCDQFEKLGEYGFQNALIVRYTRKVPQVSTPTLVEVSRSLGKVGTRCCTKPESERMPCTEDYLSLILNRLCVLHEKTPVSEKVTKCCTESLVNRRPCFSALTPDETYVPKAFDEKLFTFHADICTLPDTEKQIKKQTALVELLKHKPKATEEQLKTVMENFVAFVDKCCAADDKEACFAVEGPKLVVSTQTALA

B1: human Fab DDF-RuV2 (Fab, V domains shown)
VH: LESGGGVVQPGRSLRLSCAASGFTFSTYGMHWVRQAPGKGLEWVAVVSYDGTKEYYSDSVKGRFTISRDNSKKMVYLQMNSLRAEDTAVYYCAKEPPRRGFYWYFDYWGQGTLVTVSS
VL: ELTQSPSSLSASVGDRVTITCRASQDISNYLAWFQQRPGKVPNLLIYAASTLQSGVPSRFSGSGSGTEFTLTISSLQPEDGASYYCQKYDGAPWTFGQGTKVEIKR
In the case of B1, the binding result is on record as “no binding”.

B2: human Fab DDF-RuV1 (Fab, V domains shown)
VH: LEQSGAEVKKPGENLKISCEASGYNFVNHWIGWVRQMPGRGLEWMGRIYPGDSETRFSPSFQGQVTISVDKTLSTASLQWNSLKTSDSATYYCVTLGRWSSWQGGALSWGQGTRVIVSS
VL: ELTQSPDSLAVSLGERATINCKSSQSILSTSKNKNYLAWYQQKPGQPPKLLIYWASTREDGVPDRFSGSGAGTDFSLTISSLQAEDVAVYYCQQRRSWPPTFGQGTKLEIKR
As to B2, the binding result is recorded as “no binding”.
